Starred links: 1 amine or outer side, 2 acyl side, 3 side chain; linkers in the order of their positions; H or OH if unused. Non-standard residues stand in square brackets, D forms with d. Groups on a side chain read outwards from the residue. No end group written: not given here. *: point of attachment. C20 diacid = O=C(O)CCCCCCCCCCCCCCCCCCC(=O)*; C18 diacid = O=C(O)CCCCCCCCCCCCCCCCC(=O)*; γGlu = O=C(O)[C@H](CCC(=O)[*:2])N[*:1]; αMeF = C[C@](N)(Cc1ccccc1)C(=O)O; AEEA = NCCOCCOCC(=O)O; Aib = CC(C)(N)C(=O)O
B1: Peptide 221 (peptide)
peptide: H[Aib]HGS[αMeF]TSDVSK[αMeF]LDSR[Aib]AK([AEEA-AEEA-γGlu-γGlu-C20 diacid])DFVQ[Aib]IANT-NH2
modifications: N-terminus assumed
SMILES: CC[C@H](C)[C@H](NC(=O)C(C)(C)NC(=O)[C@H](CCC(N)=O)NC(=O)[C@@H](NC(=O)[C@H](Cc1ccccc1)NC(=O)[C@H](CC(=O)O)NC(=O)[C@H](CCCCNC(=O)COCCOCCNC(=O)COCCOCCNC(=O)CC[C@H](NC(=O)CC[C@H](NC(=O)CCCCCCCCCCCCCCCCCCC(=O)O)C(=O)O)C(=O)O)NC(=O)[C@H](C)NC(=O)C(C)(C)NC(=O)[C@H](CCCNC(=N)N)NC(=O)[C@H](CO)NC(=O)[C@H](CC(=O)O)NC(=O)[C@H](CC(C)C)NC(=O)[C@](C)(Cc1ccccc1)NC(=O)[C@H](CCCCN)NC(=O)[C@H](CO)NC(=O)[C@@H](NC(=O)[C@H](CC(=O)O)NC(=O)[C@H](CO)NC(=O)[C@@H](NC(=O)[C@](C)(Cc1ccccc1)NC(=O)[C@H](CO)NC(=O)CNC(=O)[C@H](Cc1c[nH]cn1)NC(=O)C(C)(C)NC(=O)[C@@H](N)Cc1c[nH]cn1)[C@@H](C)O)C(C)C)C(C)C)C(=O)N[C@@H](C)C(=O)N[C@@H](CC(N)=O)C(=O)N[C@H](C(N)=O)[C@@H](C)O
B2: Peptide 210 (peptide)
peptide: H[Aib]HGS[αMeF]TSDVSK[αMeF]LDSQAAK([AEEA-AEEA-γGlu-γGlu-C18 diacid])DFVEWIANT-NH2
modifications: N-terminus assumed
SMILES: CC[C@H](C)[C@H](NC(=O)[C@H](Cc1c[nH]c2ccccc12)NC(=O)[C@H](CCC(=O)O)NC(=O)[C@@H](NC(=O)[C@H](Cc1ccccc1)NC(=O)[C@H](CC(=O)O)NC(=O)[C@H](CCCCNC(=O)COCCOCCNC(=O)COCCOCCNC(=O)CC[C@H](NC(=O)CC[C@H](NC(=O)CCCCCCCCCCCCCCCCC(=O)O)C(=O)O)C(=O)O)NC(=O)[C@H](C)NC(=O)[C@H](C)NC(=O)[C@H](CCC(N)=O)NC(=O)[C@H](CO)NC(=O)[C@H](CC(=O)O)NC(=O)[C@H](CC(C)C)NC(=O)[C@](C)(Cc1ccccc1)NC(=O)[C@H](CCCCN)NC(=O)[C@H](CO)NC(=O)[C@@H](NC(=O)[C@H](CC(=O)O)NC(=O)[C@H](CO)NC(=O)[C@@H](NC(=O)[C@](C)(Cc1ccccc1)NC(=O)[C@H](CO)NC(=O)CNC(=O)[C@H](Cc1c[nH]cn1)NC(=O)C(C)(C)NC(=O)[C@@H](N)Cc1c[nH]cn1)[C@@H](C)O)C(C)C)C(C)C)C(=O)N[C@@H](C)C(=O)N[C@@H](CC(N)=O)C(=O)N[C@H](C(N)=O)[C@@H](C)O
B3: Peptide 215 (peptide)
peptide: H[Aib]HGS[αMeF]TSDVSK[αMeF]LDSRAAK([AEEA-AEEA-γGlu-C20 diacid])D[αMeF]VQWIANT-NH2
modifications: N-terminus assumed
SMILES: CC[C@H](C)[C@H](NC(=O)[C@H](Cc1c[nH]c2ccccc12)NC(=O)[C@H](CCC(N)=O)NC(=O)[C@@H](NC(=O)[C@](C)(Cc1ccccc1)NC(=O)[C@H](CC(=O)O)NC(=O)[C@H](CCCCNC(=O)COCCOCCNC(=O)COCCOCCNC(=O)CC[C@H](NC(=O)CCCCCCCCCCCCCCCCCCC(=O)O)C(=O)O)NC(=O)[C@H](C)NC(=O)[C@H](C)NC(=O)[C@H](CCCNC(=N)N)NC(=O)[C@H](CO)NC(=O)[C@H](CC(=O)O)NC(=O)[C@H](CC(C)C)NC(=O)[C@](C)(Cc1ccccc1)NC(=O)[C@H](CCCCN)NC(=O)[C@H](CO)NC(=O)[C@@H](NC(=O)[C@H](CC(=O)O)NC(=O)[C@H](CO)NC(=O)[C@@H](NC(=O)[C@](C)(Cc1ccccc1)NC(=O)[C@H](CO)NC(=O)CNC(=O)[C@H](Cc1c[nH]cn1)NC(=O)C(C)(C)NC(=O)[C@@H](N)Cc1c[nH]cn1)[C@@H](C)O)C(C)C)C(C)C)C(=O)N[C@@H](C)C(=O)N[C@@H](CC(N)=O)C(=O)N[C@H](C(N)=O)[C@@H](C)O
B4: Peptide 222 (peptide)
peptide: H[Aib]HGS[αMeF]TSDVSK[αMeF]LDSRAAKDFVQ[Aib]IANT-NH2
modifications: not fully specified (residue 20)
B5: Peptide 213 (peptide)
peptide: H[Aib]HGS[αMeF]TSDVSK[αMeF]LDSRAAK([AEEA-AEEA-γGlu-γGlu-C20 diacid])DFVEWIANT-NH2
modifications: N-terminus assumed
SMILES: CC[C@H](C)[C@H](NC(=O)[C@H](Cc1c[nH]c2ccccc12)NC(=O)[C@H](CCC(=O)O)NC(=O)[C@@H](NC(=O)[C@H](Cc1ccccc1)NC(=O)[C@H](CC(=O)O)NC(=O)[C@H](CCCCNC(=O)COCCOCCNC(=O)COCCOCCNC(=O)CC[C@H](NC(=O)CC[C@H](NC(=O)CCCCCCCCCCCCCCCCCCC(=O)O)C(=O)O)C(=O)O)NC(=O)[C@H](C)NC(=O)[C@H](C)NC(=O)[C@H](CCCNC(=N)N)NC(=O)[C@H](CO)NC(=O)[C@H](CC(=O)O)NC(=O)[C@H](CC(C)C)NC(=O)[C@](C)(Cc1ccccc1)NC(=O)[C@H](CCCCN)NC(=O)[C@H](CO)NC(=O)[C@@H](NC(=O)[C@H](CC(=O)O)NC(=O)[C@H](CO)NC(=O)[C@@H](NC(=O)[C@](C)(Cc1ccccc1)NC(=O)[C@H](CO)NC(=O)CNC(=O)[C@H](Cc1c[nH]cn1)NC(=O)C(C)(C)NC(=O)[C@@H](N)Cc1c[nH]cn1)[C@@H](C)O)C(C)C)C(C)C)C(=O)N[C@@H](C)C(=O)N[C@@H](CC(N)=O)C(=O)N[C@H](C(N)=O)[C@@H](C)O
B6: Peptide 205 (peptide)
peptide: H[Aib]QGT[αMeF]TSDVSK[αMeF]LDSRAAK([AEEA-AEEA-γGlu-C18 diacid])DFVQWIANT-NH2
modifications: N-terminus assumed
SMILES: CC[C@H](C)[C@H](NC(=O)[C@H](Cc1c[nH]c2ccccc12)NC(=O)[C@H](CCC(N)=O)NC(=O)[C@@H](NC(=O)[C@H](Cc1ccccc1)NC(=O)[C@H](CC(=O)O)NC(=O)[C@H](CCCCNC(=O)COCCOCCNC(=O)COCCOCCNC(=O)CC[C@H](NC(=O)CCCCCCCCCCCCCCCCC(=O)O)C(=O)O)NC(=O)[C@H](C)NC(=O)[C@H](C)NC(=O)[C@H](CCCNC(=N)N)NC(=O)[C@H](CO)NC(=O)[C@H](CC(=O)O)NC(=O)[C@H](CC(C)C)NC(=O)[C@](C)(Cc1ccccc1)NC(=O)[C@H](CCCCN)NC(=O)[C@H](CO)NC(=O)[C@@H](NC(=O)[C@H](CC(=O)O)NC(=O)[C@H](CO)NC(=O)[C@@H](NC(=O)[C@](C)(Cc1ccccc1)NC(=O)[C@@H](NC(=O)CNC(=O)[C@H](CCC(N)=O)NC(=O)C(C)(C)NC(=O)[C@@H](N)Cc1c[nH]cn1)[C@@H](C)O)[C@@H](C)O)C(C)C)C(C)C)C(=O)N[C@@H](C)C(=O)N[C@@H](CC(N)=O)C(=O)N[C@H](C(N)=O)[C@@H](C)O

biological target: human glucagon receptor (human, UniProt P47871); experiment: cell-based or functional assay

Binder	hGluc-R EC50 (pM)
B1	123
B2	93.7
B3	2610
B4	244
B5	141
B6	8.14

biological target: human GLP-1 receptor (human, UniProt P43220); experiment: cell-based or functional assay

Binder	hGLP-1R EC50 (pM)
B1	122
B2	156
B3	7620
B4	151
B5	534
B6	29.9

Reference: patent US12630600B2 (MEDIMMUNE LIMITED, priority 2022, dated 2026)
